Measured values taken from patent US20130101549A1 (Biogen, published 2013).

T1: Her2-Fc D1 (MR066)
T1 construct: also called ErbB2-Fc Domain 1
T1 chain: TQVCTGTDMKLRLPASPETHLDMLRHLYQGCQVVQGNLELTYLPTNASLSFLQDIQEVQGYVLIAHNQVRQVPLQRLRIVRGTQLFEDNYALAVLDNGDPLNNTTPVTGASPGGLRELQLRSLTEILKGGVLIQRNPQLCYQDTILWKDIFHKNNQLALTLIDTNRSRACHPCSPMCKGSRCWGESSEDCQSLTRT

T2: Her2-Fc D1-D2 (MR067)
T2 construct: also called ErbB2-Fc Domains 1-2
T2 chain: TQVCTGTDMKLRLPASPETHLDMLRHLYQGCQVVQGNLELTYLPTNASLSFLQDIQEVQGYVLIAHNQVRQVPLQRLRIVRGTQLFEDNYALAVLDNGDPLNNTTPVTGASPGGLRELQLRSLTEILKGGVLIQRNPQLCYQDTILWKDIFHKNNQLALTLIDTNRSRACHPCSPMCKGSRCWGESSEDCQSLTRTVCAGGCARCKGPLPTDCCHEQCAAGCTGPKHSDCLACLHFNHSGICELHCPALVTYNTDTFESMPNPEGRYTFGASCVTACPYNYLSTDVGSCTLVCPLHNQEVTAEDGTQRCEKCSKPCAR

B1: BIIB67F10 Fab (Fab, V domains shown)
VH: EVQLLESGGGLVQPGGSLRLSCAASGFTFSPYMMVWVRQAPGKGLEWVSWISPSGGYTFYADSVKGRFTISRDNSKNTLYLQMNSLRAEDTAVYYCAYGTYPLTYWGQGTLVTVSS
VL: QSELTQTPSVSVSPGQTASITCSGDKLGDKYVSWFQLKPGQSPLLVIYQDSKWPSGIPERFSGSNSGNTATLTISGTQATDEADYYCQVWDISHVVFGGGTKLTVL
notes: Soluble human Fab from a naive phagemid Fab library
B2: BIIB66A12 Fab (Fab, V domains shown)
VH: EVQLLESGGGLVQPGGSLRLSCAASGFTFSMYSMQWVRQAPGKGLEWVSVIGSSGGQTGYADSVKGRFTISRDNSKNTLYLQMNSLRAEDTAVYYCARVRDYYGSGSYYLDPWGQGTLVTVSS
VL: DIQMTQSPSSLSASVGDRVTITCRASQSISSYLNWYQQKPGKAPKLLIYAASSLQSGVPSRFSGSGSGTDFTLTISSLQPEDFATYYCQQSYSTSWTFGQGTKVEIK
notes: as for B1
B3: BIIB65H09 Fab (Fab, V domains shown)
VH: EVQLLESGGGLVQPGGSLRLSCAASGFTFSWYSMWWVRQAPGKGLEWVSSIVSSGGQTRYADSVKGRFTISRDNSKNTLYLQMNSLRAEDTAVYYCARVKGYYYYIDVWGKGTTVTVSS
VL: DIQMTQSPGTLSLSPGERATLSCRASQSVDSSYLSWYQQKPGQAPRLLIYGASTRATGIPARFSGSGSGTDFTLTVSRLEPEDFAVYYCQQHGYSSRTFGQGTKVEIK
notes: as for B1
B4: BIIB69A09 Fab (Fab, V domains shown)
VH: EVQLLESGGGLVQPGGSLRLSCAASGFTFSRYNMWWVRQAPGKGLEWVSVIRSSGGYTGYADSVKGRFTISRDNSKNTLYLQMNSLRAEDTAVYYCARWNSGYSYWDYYYGMDVWGQGTTVTVSS
VL: DIQMTQSPSSLSASVGDRVTITCRASQSISSYLNWYQQKPGKAPKLLIYAASSLQSGVPSRFSGSGSGTDFTLTISSLQPEDFATYYCQQFNTYPITFGPGTKVDIK
notes: as for B1
B5: BIIB65C10 Fab (Fab, V domains shown)
VH: EVQLLESGGGLVQPGGSLRLSCAASGFTFSYYPMMWVRQAPGKGLEWVSSIWPSGGFTKYADSVKGRFTISRDNSKNTLYLQMNSLRAEDTATYYCARVSSSSWYGYLYWGQGTLVTVSS
VL: not shown
notes: as for B1
B6: BIIB65B03 Fab (Fab, V domains shown)
VH: EVQLLESGGGLVQPGGSLRLSCAASGFTFSWYRMNWVRQAPGKGLEWVSSIYSSGGPTNYADSVKGRFTISRDNSQNTLYLQMNSLRAEDTAVYYCTREKPDYYDSSGYLDYWGQGTLVTVSS
VL: DIQMTQSPGTLSLSPGERSTLSCRASQSVSSSYLAWYQQKPGQAPRLLIYGASSRATGIPDRFSGSGSGTDFTLTISRLEPEDFGVYYCHQYGRPPVFGPGTKVDIK
notes: as for B1
B7: BIIB67F11 Fab (Fab, V domains shown)
VH: EVQLLESGGGLVQPGGSLRLSCAASGFTFSNYYMMWVRQAPGKGLEWVSVIGSSGGMTNYADSVKGRFTISRDNSKNTLYLQMNSLRAEDTAVYYCARGYPTGYYDSSGWVYSYYGIDVWGQGTTVTVSS
VL: DIQMTQSPSSLSASIGDRVTITCQASQDTDNRLHWYQQKSGRAPKLLIYDAVNLKRGVPSRFRGSGSGTNFILTITNLQPEDMATYFCQHSDGLSLAFGGGTKLEIK
notes: as for B1
B8: BIIB66C01 Fab (Fab, V domains shown)
VH: EVQLLESGGGLVQPGGSLRLSCAASGFTFSWYSMSWVRQAPGKGLEWVSSISSSGGPTHYADSVKGRFTISRDNSKNTLYLQMNSLRAEDTAVYYCARDSSYSGTSWGQGTLVTVSS
VL: QYELTQPPSVSGTPGQRVTISCSGSSSNIGSEYVYWFQQLPGTAPRLLIYRNDQRPSGVPDRFSGSKSGTSASLAISGLRSEDETDYYCTTWDDSLSGPVFGGGTKLTVL
notes: as for B1

What was measured:
[1] = biological target: T3, EGFR on MDA-MB-468 cells (UniProt P00533 25-1210, limits assumed); assay: FACS on MDA-MB-468 cells (EGFR+, HER2-)
T3 construct: whole, on cells; also called MDA-MB-468 tumor cell line (EGFR+, HER2-)

[2] = biological target: T1, Her2-Fc D1 (MR066); assay: ELISA, HER2-Fc construct captured by anti-huFc, Fab from 1 ug/ml in 5-fold steps, HRP anti-kappa/lambda
Experimental: (§1) Nunc Maxisorp ELISA plates were coated with 5 ug/ml rabbit pAbs anti-human Fc gamma in PBS overnight at 4 degrees. Plates were washed one time with PBST (PBS, 0.05% tween 20) and blocked with 1% BSA in PBS for one hour at room temperature. Plates were washed one time with PBST and incubated with 1 ug/ml HER2-Fc fusion protein for one hour. Plates were washed three times with PBST and dilutions of Fab (four 5-fold serial dilutions, starting at 1 ug/ml) in block were added and incubated for ninety minutes. Plates were washed three times with PBST and incubated with 1:2,000 HRP-labelled goat anti-human kappa (Southern Biotech cat#2060-05) and HRP-labelled goat anti-human lambda (Southern Biotech cat#2070-05) in block for one hour at room temperature. Plates were washed three times with PBST, developed with TMB solution for 5 minutes, and stopped with equal volume 1 N H₂SO₄. Absorbance values were read at 450 nm.

[3] = biological target: T4, Her2-Fc D1-D2-D3-D4 (MR069); assay: as above
T4 construct: made in house, kept apart from the R&D Systems HER2-Fc; also called ErbB2-Fc full length ECD
Experimental: as §1

[4] = biological target: T2, Her2-Fc D1-D2 (MR067); assay: as above
Experimental: as §1

[5] = biological target: T5, Her2-Fc D1-D2-D3 (MR068); assay: as above
T5 construct: also called ErbB2-Fc Domains 1-3
Experimental: as §1

[6] = biological target: T6, human HER2/ErbB2 on cells (human, UniProt P04626 23-1255); assay: flow cytometry on CHO cells expressing human HER2
T6 construct: whole, on cells; also called hHER2/ErbB2; wild type HER2/ErbB
Experimental: CHO cells (Chinese Hamster Ovary cells) stably transfected with hHER2 expression vector and selected in G418 containing medium. G418 resistant clones were pooled and split 24 hours prior to the setup of the assay to obtain 70% confluent monolayer. Routinely, CHO cell line was maintained within 20 passages. Cells were lifted with cell dissociation buffer (Gibco catalog #13151-014), counted, washed and adjusted to 1×10⁶ cells/ml and one ml of cells were then added to each tube (12×75 mm tube Falcon catalog #352054). Cells were pelleted and supernatant removed by centrifugation at 1200 rpm for 5 min and 100 μl of diluted antibodies were then added to the cell pellet. Purified Fabs were tested at a starting concentration of either 210 or 60 μg/ml with 1:3 dilutions in FACS buffer, down to 0.001 μg/ml. FACS buffer used throughout the assay was PBS (without Ca^{+±}/Mg^{+±}) containing 1% BSA (Sigma catalog #A-7906) and 0.1% Sodium Azide (Sigma catalog #S2002). Samples were allowed to incubate on ice for 1 hour and 15 minutes then were washed with 2 ml FACS buffer and centrifuged at 1200 rpm for 5 minutes at 4° C. The supernatant was aspirated and 100 μl of the secondary detection antibody was added to each corresponding tube in FACS buffer. Samples were then incubated for 30 minutes on ice, in the dark. Cells were washed as described above, then, re-suspended in 250 μl FACS buffer per tube/sample.
A full titration was performed on MCF7 and SKBR3 tumor cell lines, and human Her2-CHO and murine Her2-CHO cell lines in order to calculate an approximate EC50 (data not shown, see summary in Table 1).

[7] = biological target: T7, murine HER2 on CHO cells (mouse, UniProt P70424 23-1256); assay: FACS on CHO cells expressing murine HER2
T7 construct: whole, on cells; also called mHER2/ErbB2; murine Her2-CHO

Binder	binding result [1]	binding result [2]	binding result [3]	binding result [4]	binding result [5]	EC50 [6] [nM]	binding result [7]
B1	no binding	binds	binds	binds	binds	2	no binding
B2	no binding	no binding (tested: 1 ug/ml)	binds	no binding (tested: 1 ug/ml)	binds	60	no binding
B3	no binding	no binding (tested: 1 ug/ml)	binds	no binding (tested: 1 ug/ml)	binds	20	no binding
B4	no binding	binds	binds	binds	binds	2	no binding
B5	no binding	no binding (tested: 1 ug/ml)	binds	binds	binds	6	no binding
B6	no binding	no binding (tested: 1 ug/ml)	binds	no binding (tested: 1 ug/ml)	binds	15	no binding
B7	no binding	binds	binds	binds	binds	7	no binding
B8	no binding	no binding (tested: 1 ug/ml)	binds	no binding (tested: 1 ug/ml)	binds	12	no binding
